In article PMC4757822, “Structural and biochemical characterization of an RNA/DNA binding motif in the N-terminal domain of RecQ4 helicases”:

Tests used:
[1] = target: T1, hUpZnK (upstream Sld2-like region + Zn knuckle) (human) (UniProt O94761); assay: EMSA; conditions: 20 mM Tris-HCl pH 7.5, 2 mM MgCl2, 50 mM NaCl, 5% glycerol, 1 mM DTT, 5 mM ZnCl2, 0.1 mg/ml BSA, 10 nM probe, 30 min room temperature; 6% native gel in TBE at …
T1 sequence: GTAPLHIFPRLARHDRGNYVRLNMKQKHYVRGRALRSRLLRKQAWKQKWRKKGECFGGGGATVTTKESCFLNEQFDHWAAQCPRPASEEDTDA

[2] = tested on: xUpZnK (upstream Sld2-like region + Zn knuckle) (Xenopus laevis); assay: EMSA; conditions: 20 mM Tris-HCl pH 7.5, 2 mM MgCl2, 50 mM NaCl, 5% glycerol, 1 mM DTT, 5 mM ZnCl2, 0.1 mg/ml BSA, 10 nM probe, 30 min room temperature; 6% native gel in TBE at …
[3] = target: T2, hZnK (RecQ4 Zn knuckle) (human, UniProt O94761 394-427); assay: EMSA; conditions: 20 mM Tris-HCl pH 7.5, 2 mM MgCl2, 50 mM NaCl, 5% glycerol, 1 mM DTT, 5 mM ZnCl2, 0.1 mg/ml BSA, 10 nM probe, 30 min room temperature; 6% native gel in TBE at …
T2 chain: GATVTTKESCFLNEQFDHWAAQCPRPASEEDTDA

[4] = target: T3, hUpZnK (upstream Sld2-like region + Zn knuckle) (human, UniProt O94761 335-427); assay: EMSA; 5 mM ZnCl2, 2 mM Mg2+; 20 mM Tris-HCl pH 7.5, 2 mM MgCl2, 50 mM NaCl, 5% glycerol, 1 mM DTT, 5 mM ZnCl2, 0.1 mg/ml BSA, 10 nM probe, 30 min room temperature; 6% native gel in TBE at 4 C; conditions: protein: recombinant, tags: N-terminal 6His-GST (not cleaved), label: 5'-32P on one strand, fork
T3 sequence: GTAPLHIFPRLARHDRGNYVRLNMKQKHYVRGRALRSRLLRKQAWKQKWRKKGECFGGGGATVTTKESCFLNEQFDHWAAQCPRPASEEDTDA

[5] = target: T2, hZnK (RecQ4 Zn knuckle); assay: as above; conditions: protein: recombinant, tags: N-terminal 6His-GST (not cleaved), label: 5'-32P on one strand, fork
[6] = target: T3, hUpZnK (upstream Sld2-like region + Zn …); assay: EMSA; 20 mM Tris-HCl pH 7.5, 2 mM MgCl2, 50 mM NaCl, 5% glycerol, 1 mM DTT, 5 mM ZnCl2, 0.1 mg/ml BSA, 10 nM probe, 30 min room temperature; 6% native gel in TBE at 4 C; conditions: protein: recombinant; tags: N-terminal 6His-GST (not cleaved); label: 5'-32P on one strand; blunt
[7] = target: T2, hZnK (RecQ4 Zn knuckle); assay: as above; conditions: protein: recombinant; tags: N-terminal 6His-GST (not cleaved); label: 5'-32P on one strand; blunt
[8] = 22 bp plus 15 nt unpaired T arms (3' arm of A1, 5' arm of A2)
[9] = 22 bp plus 15 nt unpaired U arms (3' arm of A3, 5' arm of A4)

For ssDNA, which Kd [1] is on record?
The Kd was 185 nM.

What about the Kd [2] of the same molecule?
Its Kd is 25 nM.

What about the Kd [3] of the same molecule?
The Kd was 500 nM.

How did the Kd [2] turn out when “GUAGUGCAUGUACACCACACUCUUUUUUUUUUUUUUU / UUUUUUUUUUUUUUUGAGUGUGGUGUACAUGCACUAC [forkRNA (A3+A4)]” was run?
Its Kd is 5.4 nM.

ssRNA was tested. Which Kd [1] did it give?
Its Kd is 11 nM.

What about the Kd [2] of the same molecule?
Its Kd is 7.3 nM.

And the Kd [3]?
The Kd was 220 nM.

How did the Kd [2] turn out when “GTAGTGCATGTACACCACACTCTTTTTTTTTTTTTTT / TTTTTTTTTTTTTTTGAGTGTGGTGTACATGCACTAC [forkDNA (A1+A2)]” was run?
The Kd was 14 nM.

B1: forkDNA (A1+A2) (dsDNA)
DNA 1: GTAGTGCATGTACACCACACTCTTTTTTTTTTTTTTT
DNA 2: TTTTTTTTTTTTTTTGAGTGTGGTGTACATGCACTAC
What does the source list for B1?
Kd [4, 8]: 42 ± 2.8 nM; Kd [5, 8]: ~270 nM

B2: 22 bp dsDNA (annealed region of fork) (dsDNA)
DNA 1: GTAGTGCATGTACACCACACTC
DNA 2: GAGTGTGGTGTACATGCACTAC
What does the source list for B2?
binding result [6]: no binding; binding result [7]: no binding

B3: forkRNA (A3+A4) (dsRNA)
RNA 1: GUAGUGCAUGUACACCACACUCUUUUUUUUUUUUUUU
RNA 2: UUUUUUUUUUUUUUUGAGUGUGGUGUACAUGCACUAC
With B3 as the molecule, how does the Kd [4, 9] read?
Its Kd is 13 ± 1.1 nM.

And the Kd [5, 9]?
Its Kd is roughly 130 nM.
